# Earlier results as cited in PMC3312455.
# “And” between values parts separate entries of the source, which are not always exact repeats. Identical values can stand only once.
# Assays:
# Assay in all cases: SPR
# [1] = molecular target: FGFR1-IIIc ECD (Homo sapiens) (UniProt P11362)
# [2] = molecular target: FGFR3-IIIc D1-D3 (Homo sapiens) (UniProt P22607)
# [3] = molecular target: FGFR2-IIIb ECD (Homo sapiens) (UniProt P21802)
# [4] = molecular target: FGFR3-IIIc D2-D3 (Homo sapiens) (UniProt P22607)
# [5] = molecular target: FGFR2-IIIb D2-D3 (Homo sapiens) (UniProt P21802)
# [6] = molecular target: αvβ3 integrin receptor (Homo sapiens) (UniProt P06756)
# [7] = molecular target: FGFR1-IIIc D2-D3 (Homo sapiens) (UniProt P11362)
# agrin = agrin (UniProt O00468)
# [8] = molecular target: FGFR1-IIIc D1-D3 (Homo sapiens) (UniProt P11362)
# c-MET ECD (Homo sapiens) = c-MET ECD (Homo sapiens) (UniProt P08581)
# [9] = molecular target: PDGFRα ECD (Homo sapiens) (UniProt P16234)
# [10] = molecular target: PDGFRβ ECD (Homo sapiens) (UniProt P09619)
# [11] = molecular target: Neuropilin-1 ECD (Homo sapiens) (UniProt O14786)
# [12] = molecular target: VEGFR1/Flt ECD (Homo sapiens) (UniProt P17948)
# FGF1, sequence (P05230 16-155): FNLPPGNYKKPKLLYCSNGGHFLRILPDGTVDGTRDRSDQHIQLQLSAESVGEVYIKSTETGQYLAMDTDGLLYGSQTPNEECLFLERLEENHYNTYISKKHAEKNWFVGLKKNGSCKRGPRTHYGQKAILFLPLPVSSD
# VEGF-A165, sequence (P15692 whole entry): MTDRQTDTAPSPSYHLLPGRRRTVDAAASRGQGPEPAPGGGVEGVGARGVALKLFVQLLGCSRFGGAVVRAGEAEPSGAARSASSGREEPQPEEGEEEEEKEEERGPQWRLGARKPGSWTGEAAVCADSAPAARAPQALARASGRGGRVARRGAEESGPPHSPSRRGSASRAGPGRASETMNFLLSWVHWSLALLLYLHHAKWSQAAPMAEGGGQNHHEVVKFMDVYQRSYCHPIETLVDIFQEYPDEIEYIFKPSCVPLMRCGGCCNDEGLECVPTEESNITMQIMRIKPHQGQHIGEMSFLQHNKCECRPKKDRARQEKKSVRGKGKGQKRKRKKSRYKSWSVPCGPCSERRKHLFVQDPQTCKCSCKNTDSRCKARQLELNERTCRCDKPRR
# FGF2, sequence (P09038 143-288): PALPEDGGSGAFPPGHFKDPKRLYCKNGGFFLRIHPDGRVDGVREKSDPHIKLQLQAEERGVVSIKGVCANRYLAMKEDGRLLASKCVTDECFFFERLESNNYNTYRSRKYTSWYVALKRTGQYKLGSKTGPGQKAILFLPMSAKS
# FGFR2-IIIb ECD (Homo sapiens), sequence (P21802 22-377): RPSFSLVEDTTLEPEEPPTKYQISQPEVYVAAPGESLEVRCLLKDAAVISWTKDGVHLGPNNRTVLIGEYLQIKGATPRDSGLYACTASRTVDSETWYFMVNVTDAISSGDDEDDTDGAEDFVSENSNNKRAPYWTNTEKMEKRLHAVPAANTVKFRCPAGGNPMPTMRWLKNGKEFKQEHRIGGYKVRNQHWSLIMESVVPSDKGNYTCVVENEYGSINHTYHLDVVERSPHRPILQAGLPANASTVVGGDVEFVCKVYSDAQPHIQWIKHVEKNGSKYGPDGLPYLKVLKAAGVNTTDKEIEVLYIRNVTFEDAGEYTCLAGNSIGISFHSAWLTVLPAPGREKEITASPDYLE
# αvβ3 integrin receptor (Homo sapiens), sequence (P06756 31-1048, chain 1 of 2): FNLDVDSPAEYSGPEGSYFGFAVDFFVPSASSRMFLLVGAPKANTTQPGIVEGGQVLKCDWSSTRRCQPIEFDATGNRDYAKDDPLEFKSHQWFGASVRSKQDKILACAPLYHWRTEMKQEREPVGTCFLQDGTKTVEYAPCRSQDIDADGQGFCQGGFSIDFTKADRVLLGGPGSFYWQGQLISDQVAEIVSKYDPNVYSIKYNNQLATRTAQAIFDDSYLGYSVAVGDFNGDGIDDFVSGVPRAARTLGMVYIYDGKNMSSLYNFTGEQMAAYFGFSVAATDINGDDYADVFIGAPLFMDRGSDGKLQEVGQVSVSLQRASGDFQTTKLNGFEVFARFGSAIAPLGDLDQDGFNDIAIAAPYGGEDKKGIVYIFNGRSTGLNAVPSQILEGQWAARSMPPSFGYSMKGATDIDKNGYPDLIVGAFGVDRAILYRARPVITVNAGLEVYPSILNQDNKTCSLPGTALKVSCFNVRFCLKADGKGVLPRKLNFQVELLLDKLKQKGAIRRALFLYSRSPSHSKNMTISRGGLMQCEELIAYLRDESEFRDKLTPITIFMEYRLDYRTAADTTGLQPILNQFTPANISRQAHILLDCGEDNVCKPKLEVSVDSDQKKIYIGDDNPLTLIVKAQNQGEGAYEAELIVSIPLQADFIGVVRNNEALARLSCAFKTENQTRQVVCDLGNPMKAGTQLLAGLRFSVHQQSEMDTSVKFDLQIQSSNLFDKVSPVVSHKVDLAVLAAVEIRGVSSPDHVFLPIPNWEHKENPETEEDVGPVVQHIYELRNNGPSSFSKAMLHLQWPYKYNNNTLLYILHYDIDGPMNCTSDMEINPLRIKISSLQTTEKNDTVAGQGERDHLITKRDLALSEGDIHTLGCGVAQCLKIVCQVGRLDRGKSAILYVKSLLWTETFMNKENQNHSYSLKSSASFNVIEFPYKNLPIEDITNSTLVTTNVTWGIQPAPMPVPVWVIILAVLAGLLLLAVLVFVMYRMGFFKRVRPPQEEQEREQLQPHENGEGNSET
# αvβ3 integrin receptor (Homo sapiens), sequence (P05106 27-788, chain 2 of 2, further chain): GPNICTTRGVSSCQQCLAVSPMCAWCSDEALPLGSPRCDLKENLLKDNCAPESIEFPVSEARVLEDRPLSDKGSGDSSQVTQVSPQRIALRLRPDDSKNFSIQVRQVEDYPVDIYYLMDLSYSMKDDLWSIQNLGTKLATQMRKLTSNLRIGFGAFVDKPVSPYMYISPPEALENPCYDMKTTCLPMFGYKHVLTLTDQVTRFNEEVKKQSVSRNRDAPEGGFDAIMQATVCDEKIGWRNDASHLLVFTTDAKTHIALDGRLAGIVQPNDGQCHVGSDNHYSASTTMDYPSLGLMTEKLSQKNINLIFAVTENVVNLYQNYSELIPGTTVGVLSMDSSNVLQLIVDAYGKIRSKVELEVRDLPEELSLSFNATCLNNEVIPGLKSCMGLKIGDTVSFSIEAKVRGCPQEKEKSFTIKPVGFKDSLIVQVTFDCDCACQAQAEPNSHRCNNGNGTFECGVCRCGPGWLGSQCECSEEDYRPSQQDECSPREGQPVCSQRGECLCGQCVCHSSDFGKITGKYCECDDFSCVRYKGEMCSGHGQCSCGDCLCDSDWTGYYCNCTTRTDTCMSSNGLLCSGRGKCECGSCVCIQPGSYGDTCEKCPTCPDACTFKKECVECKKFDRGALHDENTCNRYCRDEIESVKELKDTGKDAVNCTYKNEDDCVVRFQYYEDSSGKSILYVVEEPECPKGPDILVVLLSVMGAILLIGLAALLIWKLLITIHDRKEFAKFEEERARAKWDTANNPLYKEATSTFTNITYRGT
# HGF, sequence (P14210 32-494): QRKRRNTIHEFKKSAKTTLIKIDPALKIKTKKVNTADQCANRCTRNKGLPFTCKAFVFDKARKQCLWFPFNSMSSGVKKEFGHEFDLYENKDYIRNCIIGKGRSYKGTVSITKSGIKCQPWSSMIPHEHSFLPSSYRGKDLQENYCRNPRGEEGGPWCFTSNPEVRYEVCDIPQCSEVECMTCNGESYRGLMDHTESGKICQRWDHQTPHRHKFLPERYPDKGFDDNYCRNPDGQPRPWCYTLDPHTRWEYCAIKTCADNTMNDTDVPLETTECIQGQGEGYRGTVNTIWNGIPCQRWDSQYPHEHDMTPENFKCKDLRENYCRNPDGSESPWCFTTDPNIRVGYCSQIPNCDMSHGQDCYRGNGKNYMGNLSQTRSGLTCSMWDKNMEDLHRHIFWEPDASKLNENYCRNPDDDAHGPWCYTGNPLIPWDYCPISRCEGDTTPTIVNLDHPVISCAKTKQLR
# HGF, sequence (P14210 495-728): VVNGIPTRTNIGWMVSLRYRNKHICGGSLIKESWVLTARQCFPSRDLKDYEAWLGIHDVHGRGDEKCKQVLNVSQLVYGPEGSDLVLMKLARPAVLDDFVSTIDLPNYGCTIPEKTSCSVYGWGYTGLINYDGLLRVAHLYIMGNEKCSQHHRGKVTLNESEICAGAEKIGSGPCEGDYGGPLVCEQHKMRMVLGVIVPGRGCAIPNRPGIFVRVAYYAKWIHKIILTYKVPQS
# PDGFRα ECD (Homo sapiens), sequence (P16234 24-528): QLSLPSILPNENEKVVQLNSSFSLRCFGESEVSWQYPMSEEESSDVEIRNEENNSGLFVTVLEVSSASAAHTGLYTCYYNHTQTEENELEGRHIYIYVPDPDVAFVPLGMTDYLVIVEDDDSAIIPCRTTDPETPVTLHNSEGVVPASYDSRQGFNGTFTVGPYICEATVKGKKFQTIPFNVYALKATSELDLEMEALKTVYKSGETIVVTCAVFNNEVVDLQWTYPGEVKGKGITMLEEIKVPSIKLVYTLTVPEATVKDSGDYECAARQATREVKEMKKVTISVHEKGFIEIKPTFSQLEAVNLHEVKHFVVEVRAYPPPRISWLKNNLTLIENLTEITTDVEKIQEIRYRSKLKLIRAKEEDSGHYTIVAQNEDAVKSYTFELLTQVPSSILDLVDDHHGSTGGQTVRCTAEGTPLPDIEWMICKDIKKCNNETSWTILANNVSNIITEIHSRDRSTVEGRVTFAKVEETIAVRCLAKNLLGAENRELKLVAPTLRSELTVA
# FGF4, sequence (P08620 31-206): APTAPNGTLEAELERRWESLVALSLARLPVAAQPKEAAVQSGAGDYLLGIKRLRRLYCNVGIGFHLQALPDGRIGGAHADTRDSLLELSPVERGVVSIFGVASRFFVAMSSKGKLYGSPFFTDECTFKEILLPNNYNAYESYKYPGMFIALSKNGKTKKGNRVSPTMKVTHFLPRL
# FGFR1-IIIc D2-D3 (Homo sapiens), sequence (P11362 142-365): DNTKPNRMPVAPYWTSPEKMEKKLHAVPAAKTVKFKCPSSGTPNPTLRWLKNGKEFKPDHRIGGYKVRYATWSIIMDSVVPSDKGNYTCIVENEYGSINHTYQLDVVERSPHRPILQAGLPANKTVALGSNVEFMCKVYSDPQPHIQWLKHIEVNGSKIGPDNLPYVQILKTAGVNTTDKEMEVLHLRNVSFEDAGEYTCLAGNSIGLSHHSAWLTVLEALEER
# PDGF-BB, sequence (P01127 82-190): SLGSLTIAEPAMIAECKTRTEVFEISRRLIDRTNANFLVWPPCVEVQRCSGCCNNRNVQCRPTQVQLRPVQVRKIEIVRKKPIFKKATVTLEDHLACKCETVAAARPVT
# HIV-Tat, sequence (P04326 whole entry): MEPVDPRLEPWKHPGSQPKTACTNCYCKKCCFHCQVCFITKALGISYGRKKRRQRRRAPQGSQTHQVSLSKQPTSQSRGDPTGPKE
# FGFR3-IIIc D2-D3 (Homo sapiens), sequence (P22607 147-365): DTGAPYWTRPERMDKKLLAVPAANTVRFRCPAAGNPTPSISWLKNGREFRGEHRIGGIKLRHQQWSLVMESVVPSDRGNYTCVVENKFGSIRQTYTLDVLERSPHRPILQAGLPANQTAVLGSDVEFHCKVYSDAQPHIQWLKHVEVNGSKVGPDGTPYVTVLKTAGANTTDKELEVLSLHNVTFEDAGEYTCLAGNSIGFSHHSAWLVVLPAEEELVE
substance,measurement,setting,value
FGF1 (from UniProt P05230),Kd,[1],35 nM
same,Kd,[2],916 nM
same,Kd,[3],0.8 nM
same,Kd,[4],230 nM
same,Kd,[5],59.6 nM
same,Kd,[6],1100 nM
FGF2 (from UniProt P09038),Kd,[7],62 nM
same,Kd,agrin,2.5 nM
same,Kd,[3],0.5 nM
same,Kd,[8],99 nM
FGF4 (from UniProt P08620),Kd,[7],165 nM
same,Kd,[3],0.42 nM
HGF (from UniProt P14210),Kd,c-MET ECD (Homo sapiens),50 nM and 90 nM
HIV-Tat (from UniProt P04326),Kd,[6],32 nM
PDGF-AA (from UniProt P04085),Kd,[9],13.4 nM
same,Kd,[10],453 nM
PDGF-BB (from UniProt P01127),Kd,[9],150 nM
VEGF-A165 (from UniProt P15692),Kd,[11],2000 nM
same,Kd,[12],0.007 nM and 0.03 nM
